Assay results from patent US20230303690A1 (published 2023).
Numbering of substitutions follows the chain as printed.

B1: sdAb fusion 25-2015-1 (Fc fusion, not shown: a dimerising Fc or GST)
chain: QLQLVESGGGLVQAGGSLRLSCAASGSIESFSFMGWYRQAPGKQRELVAGFTGAASLSFSTYTDAVKGRFTISRDNAKNTVYLQMNSLKPEDTAVYFCNVDPWSQSWPGRYWGQGTQVTVSSGGGGSQLQLVESGGGLAQTGGSLRLSCAAAGFTFDDTATGWFRQAPGKNREGVACISSSDGRIHYIDSAKGRFTISKDNAKKTVYLQMDSLKPEDTAVYYCAAARKGSTDCQGAIWGSWGQGTQVIVSSEPKSCDKTHTCPPCPAPELLG
B2: sdAb fusion 25-2015-2 (Fc fusion, not shown: a dimerising Fc or GST)
chain: QLQLVESGGGLVQAGGSLRLSCAASGSIESFSFMGWYRQAPGKQRELVAGFTGAASLSFSTYTDAVKGRFTISRDNAKNTVYLQMNSLKPEDTAVYFCNVDPWSQSWPGRYWGQGTQVTVSSGGGGSGGGGSQLQLVESGGGLAQTGGSLRLSCAAAGFTFDDTATGWFRQAPGKNREGVACISSSDGRIHYIDSAKGRFTISKDNAKKTVYLQMDSLKPEDTAVYYCAAARKGSTDCQGAIWGSWGQGTQVIVSSEPKSCDKTHTCPPCPAPELLG
B3: sdAb fusion 25-2015-3 (Fc fusion, not shown: a dimerising Fc or GST)
chain: QLQLVESGGGLVQAGGSLRLSCAASGSIESFSFMGWYRQAPGKQRELVAGFTGAASLSFSTYTDAVKGRFTISRDNAKNTVYLQMNSLKPEDTAVYFCNVDPWSQSWPGRYWGQGTQVTVSSGGGGSGGGGSGGGGSQLQLVESGGGLAQTGGSLRLSCAAAGFTFDDTATGWFRQAPGKNREGVACISSSDGRIHYIDSAKGRFTISKDNAKKTVYLQMDSLKPEDTAVYYCAAARKGSTDCQGAIWGSWGQGTQVIVSSEPKSCDKTHTCPPCPAPELLG
B4: sdAb No. 17-H1 (VHH)
VHH: QLQLVESGGGLVQPGGSLRLSCAASGLTLDAYAIGWFRQAPGKEREGLACISGSDGSTHYLDSVKGRFTISRDNGKNTMALQMNSLQFGDTAIYYCAARRGSCSGSWTYWGQGTQVTVSS
notes: Modified sdAb No. 17 (CDR1 DG to DA); not shown: Fc part implied by anti-human IgG1 Fc detection
B5: sdAb No. 17-H2 (VHH)
VHH: B4 VHH with D30E, A31G
notes: Modified sdAb No. 17 (CDR1 DG to EG); not shown: Fc part implied by anti-human IgG1 Fc detection
B6: sdAb No. 17-H3 (VHH)
VHH: B4 VHH with A31G, G56A
notes: Modified sdAb No. 17 (CDR2 DG to DA); not shown: Fc part implied by anti-human IgG1 Fc detection
B7: sdAb No. 17-H4 (VHH)
VHH: B4 VHH with A31G, D55E
notes: Modified sdAb No. 17 (CDR2 DG to EG); not shown: Fc part implied by anti-human IgG1 Fc detection
B8: combination of sdAbs 25 and 2015 (other)
VHH 1: QLQLVESGGGLVQAGGSLRLSCAASGSIESFSFMGWYRQAPGKQRELVAGFTGAASLSFSTYTDAVKGRFTISRDNAKNTVYLQMNSLKPEDTAVYFCNVDPWSQSWPGRYWGQGTQVTVSS
VHH 2: QLQLVESGGGLAQTGGSLRLSCAAAGFTFDDTATGWFRQAPGKNREGVACISSSDGRIHYIDSAKGRFTISKDNAKKTVYLQMDSLKPEDTAVYYCAAARKGSTDCQGAIWGSWGQGTQVIVSS
B9: combination of sdAbs 25 and 18 (other)
VHH 1: B8 VHH 1
VHH 2: QVQLVESGGGLVQPGGSLRLSCAASGFTLNEHAIGWFRRAPGKEREGVSCISSSDGSTYYHDSVKGRFNMSRDDAKNSVYLQMSSLKPEDTAIYYCAAALGRDCQGGQWKTSSWGQGTQVTVSS
B10: combination of sdAbs 25 and 27 (other)
VHH 1: B8 VHH 1
VHH 2: QVQLVESGGGLVQPGGSLRLSCAASGFTLDYYAIGWFRQAPGKEREGVSCIRSSDGSTYYADSVKGRFTISSDNTKNTVYLQMNSLKPEDTAVYYCATDRYSDCRGPYENWGQGTQVTVSS

Assays:
[1] = target: human LAG3 expressed on cells (human) (UniProt P18627); assay: cell-based or functional assay
[2] = target: T1, human LAG3 expressed on cells (human, UniProt P18627 23-525); assay: cell ELISA, 293T-hLAG3 cells
T1 construct: whole, on cells
T1 sequence (looked up): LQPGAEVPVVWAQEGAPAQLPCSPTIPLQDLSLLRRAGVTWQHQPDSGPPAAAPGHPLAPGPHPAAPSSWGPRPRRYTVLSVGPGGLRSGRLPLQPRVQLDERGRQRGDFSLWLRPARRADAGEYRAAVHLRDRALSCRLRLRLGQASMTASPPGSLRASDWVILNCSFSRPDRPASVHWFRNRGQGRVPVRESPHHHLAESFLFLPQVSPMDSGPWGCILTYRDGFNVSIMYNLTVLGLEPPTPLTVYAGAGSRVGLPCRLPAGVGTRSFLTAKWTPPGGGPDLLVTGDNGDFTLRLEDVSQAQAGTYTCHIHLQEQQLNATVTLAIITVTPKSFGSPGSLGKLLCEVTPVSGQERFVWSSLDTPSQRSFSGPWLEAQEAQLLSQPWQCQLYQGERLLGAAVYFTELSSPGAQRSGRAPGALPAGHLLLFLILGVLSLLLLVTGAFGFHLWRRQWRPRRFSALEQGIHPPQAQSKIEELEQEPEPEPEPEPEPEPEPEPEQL
Procedure: Each well was treated with stimulants. The cells were then fixed and blocked with Blocking buffer. The Primary antibodies were added. The wells were washed and a HRP-conjugated secondary antibody was added. The wells were washed with 1x PBS and a solution containing TMB (Biopanda, TMB-S-004) was added. The TMB reacted with HRP to change the color thereof from colorless to blue. An acid stop solution (Solarbio, C1058) was then added to stop the reaction and change the blue color to yellow.
Materials are listed below: [0072] […] 2) Blocking buffer: 1×PBS+3% BSA (Sigma, B2064); [0074] […] [0075] 4) Secondary antibody: Goat anti-human IgG1 Fc antibody, HRP (1:2500, invitrogen, A18817). [0076]

[3] = target: T1, human LAG3 expressed on cells; assay: cell-based or functional assay

Binder	Efficacy (Normalized to BMS) [1]	IL-2, % of BMS, at 0.001016105 ug/mL [1]	IL-2, % of BMS, at 0.003048316 ug/mL [1]	IL-2, % of BMS, at 0.009144947 ug/mL [1]	IL-2, % of BMS, at 0.027434842 ug/mL [1]	IL-2, % of BMS, at 0.082304527 ug/mL [1]	IL-2, % of BMS, at 0.24691358 ug/mL [1]	IL-2, % of BMS, at 0.740740741 ug/mL [1]	IL-2, % of BMS, at 2.222222222 ug/mL [1]	IL-2, % of BMS, at 6.666666667 ug/mL [1]	IL-2, % of BMS, at 20 ug/mL [1]	EC50 [2]	OD450 at 0.0045725 ug/ml [2]	OD450 at 0.0137174 ug/ml [2]	OD450 at 0.0411523 ug/ml [2]	OD450 at 0.1234568 ug/ml [2]	OD450 at 0.3703704 ug/ml [2]	OD450 at 1.111111 ug/ml [2]	OD450 at 3.333333 ug/ml [2]	OD450 at 10 ug/ml [2]	further results
B1	114%	0.000292%	10.8%	7.32%	30.4%	10.4%	35.6%	59.7%	97.5%	112%	117%										Jurkat T-hLAG3 Assay EC50 [1]: 8.01 nM
B2	101%	0.000334%	-15.6%	-12.5%	20.8%	-0.802%	20.9%	59.4%	83.2%	88.3%	96.6%										Jurkat T-hLAG3 Assay EC50 [1]: 5.13 nM
B3	113%	0%	10.7%	7.28%	30.2%	10.3%	35.4%	59.3%	96.8%	112%	116%										Jurkat T-hLAG3 Assay EC50 [1]: 8.01 nM
B4												1.01 nM	0.101	0.242	0.527	0.945	1.27	1.4	1.44	1.5	
B5												1.07 nM	0.105	0.238	0.458	0.9	1.25	1.35	1.28	1.4	
B6												1.01 nM	0.096	0.208	0.43	0.818	1.11	1.21	1.13	1.28	
B7												0.758 nM	0.092	0.232	0.432	0.745	0.962	0.979	0.905	1.18	
B8																					IL-2, % of BMS, at 0.005080526 ug/mL [3]: 0.0473%; IL-2, % of BMS, at 0.015241579 ug/mL [3]: 0.883%; IL-2, % of BMS, at 0.045724737 ug/mL [3]: -2.03%; IL-2, % of BMS, at 0.137174211 ug/mL [3]: 0.439%; IL-2, % of BMS, at 0.411522634 ug/mL [3]: 3.96%; IL-2, % of BMS, at 1.234567901 ug/mL [3]: 18.9%; IL-2, % of BMS, at 3.703703704 ug/mL [3]: 43.6%; IL-2, % of BMS, at 11.11111111 ug/mL [3]: 52.5%; IL-2, % of BMS, at 33.33333333 ug/mL [3]: 50.7%; IL-2, % of BMS, at 100 ug/mL [3]: 62.2%
B9																					IL-2, % of BMS, at 0.005080526 ug/mL [3]: 0%; IL-2, % of BMS, at 0.015241579 ug/mL [3]: 1.97%; IL-2, % of BMS, at 0.045724737 ug/mL [3]: 13.2%; IL-2, % of BMS, at 0.137174211 ug/mL [3]: 14.6%; IL-2, % of BMS, at 0.411522634 ug/mL [3]: 32.6%; IL-2, % of BMS, at 1.234567901 ug/mL [3]: 45.4%; IL-2, % of BMS, at 3.703703704 ug/mL [3]: 52.9%; IL-2, % of BMS, at 11.11111111 ug/mL [3]: 52.5%; IL-2, % of BMS, at 33.33333333 ug/mL [3]: 65%; IL-2, % of BMS, at 100 ug/mL [3]: 66.5%
B10																					IL-2, % of BMS, at 0.005080526 ug/mL [3]: 0%; IL-2, % of BMS, at 0.015241579 ug/mL [3]: 4.21%; IL-2, % of BMS, at 0.045724737 ug/mL [3]: -1.96%; IL-2, % of BMS, at 0.137174211 ug/mL [3]: 10.8%; IL-2, % of BMS, at 0.411522634 ug/mL [3]: 39%; IL-2, % of BMS, at 1.234567901 ug/mL [3]: 51.2%; IL-2, % of BMS, at 3.703703704 ug/mL [3]: 62.3%; IL-2, % of BMS, at 11.11111111 ug/mL [3]: 69.3%; IL-2, % of BMS, at 33.33333333 ug/mL [3]: 79.8%; IL-2, % of BMS, at 100 ug/mL [3]: 83%
